Test results from patent publication US7960349B2 (Bristol-Myers Squibb Company, priority 2006, dated 2011).
*1 amine or outer side, *2 acyl side, *3 side chain or, on linkers, in order; H or OH if unused. Primed or numbered codes have the meaning given here. Where no end group is shown, it is not given here. [ ]: non-standard residue; d: D form. The star is where a group is joined. X1 = 4‑(2′-methylphenyl)‑3‑pyridylalanine, Cc1ccccc1-c1ccncc1C[C@H](N[*:1])C(=O)[*:2]; Bip(2′-Et-4′-OH-5′-I) = CCc1cc(O[*:3])c(I)cc1-c1ccc(C[C@H](N[*:1])C(=O)[*:2])cc1; Phe(4-(2-Et-4-HO-Ph)) = CCc1cc(O)ccc1-c1ccc(C[C@H](N)C(=O)O)cc1; IMeOp = 3-(1H-imidazol-4-yl)-2-methoxypropanoyl; αMePhe(2-F) = C[C@](N)(Cc1ccccc1F)C(=O)O; αMeP = C[C@@]1(C(=O)O)CCCN1; Moc = COC(=O)*

T1: Mouse GLP-1 Receptor (Mus musculus, UniProt O35659)
T1 construct: expressed in transfected cells; host or cells: CHO cells
T1 sequence (O35659 22-463): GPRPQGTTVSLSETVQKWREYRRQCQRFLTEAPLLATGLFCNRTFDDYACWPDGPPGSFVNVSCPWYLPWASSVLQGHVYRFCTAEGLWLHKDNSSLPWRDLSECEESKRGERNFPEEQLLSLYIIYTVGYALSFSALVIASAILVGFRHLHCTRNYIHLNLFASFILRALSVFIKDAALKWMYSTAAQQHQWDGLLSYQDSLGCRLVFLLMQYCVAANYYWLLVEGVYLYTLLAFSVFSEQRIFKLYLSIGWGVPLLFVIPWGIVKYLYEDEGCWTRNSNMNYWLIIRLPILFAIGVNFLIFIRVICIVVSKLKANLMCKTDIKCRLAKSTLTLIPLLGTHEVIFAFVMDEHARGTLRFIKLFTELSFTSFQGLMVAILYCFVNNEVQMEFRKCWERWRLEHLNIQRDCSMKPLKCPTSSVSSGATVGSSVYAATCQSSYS

T2: Mouse GLP-1 Receptor (mouse, UniProt O35659 22-463)
T2 sequence (looked up): T1 sequence (O35659 22-463)

B1: Compound of SEQ ID NO: 173 (or 174)* (peptide)
peptide: [IMeOp][αMeP]EGT[αMePhe(2-F)]TSD[Phe(4-(2-Et-4-HO-Ph))][X1]-NH2
modifications: also: IMeOp configuration (R or S) not determined
B2: Compound of SEQ ID NO: 164 (peptide)
peptide: Moc-H[αMeP]EGT[αMePhe(2-F)]TSD[Bip(2′-Et-4′-OH-5′-I)][X1]-NH2
B3: Compound of SEQ ID NO: 158 (peptide)
peptide: Moc-H[αMeP]EGT[αMePhe(2-F)]TSD[Phe(4-(2-Et-4-HO-Ph))][X1]-NH2
B4: Compound of SEQ ID NO: 176 (or 175)* (peptide)
peptide: [IMeOp][αMeP]EGT[αMePhe(2-F)]THD[Phe(4-(2-Et-4-HO-Ph))][X1]-NH2
modifications: also: IMeOp configuration (S or R) not determined
B5: Compound of SEQ ID NO: 174 (or 173)* (peptide)
peptide: [IMeOp][αMeP]EGT[αMePhe(2-F)]TSD[Phe(4-(2-Et-4-HO-Ph))][X1]-NH2
modifications: also: IMeOp configuration (S or R) not determined
B6: Compound of SEQ ID NO: 175 (or 176)* (peptide)
peptide: [IMeOp][αMeP]EGT[αMePhe(2-F)]THD[Phe(4-(2-Et-4-HO-Ph))][X1]-NH2
modifications: also: IMeOp configuration (R or S) not determined

Key:
[1] = molecular target: T3, Human GLP-1 Receptor (Homo sapiens, UniProt P43220); test: Cyclic AMP determination in CHO cells expressing human GLP-1 receptor; format: cell-based; settings: for Emax: CHO, percent of maximal GLP-1 stimulated activity; for Emax / Mean Hill: human GLP-1 receptor
T3 construct: Full-length human glucagon-like peptide 1 receptor was stably expressed in CHO-K1 cells; expressed in transfected cells; host or cells: CHO-K1 (clone CHO-GLP1R-19)
T3 sequence (P43220 24-463): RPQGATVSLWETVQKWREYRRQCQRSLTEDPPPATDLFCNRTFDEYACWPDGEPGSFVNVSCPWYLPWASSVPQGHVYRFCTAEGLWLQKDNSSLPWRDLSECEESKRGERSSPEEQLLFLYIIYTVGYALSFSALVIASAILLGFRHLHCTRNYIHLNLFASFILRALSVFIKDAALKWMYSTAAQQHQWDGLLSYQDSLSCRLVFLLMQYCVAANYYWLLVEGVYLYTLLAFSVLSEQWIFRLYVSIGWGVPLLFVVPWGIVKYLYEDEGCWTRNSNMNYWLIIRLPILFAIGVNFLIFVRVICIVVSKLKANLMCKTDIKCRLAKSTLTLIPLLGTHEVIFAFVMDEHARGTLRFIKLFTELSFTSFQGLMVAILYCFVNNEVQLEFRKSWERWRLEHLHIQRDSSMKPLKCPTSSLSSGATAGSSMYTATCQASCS
Protocol: (§1) CHO-GLP-1R-19 cells (20,000 in 100 μl of media) were plated into each well of a 96-well tissue culture microtiter plate and incubated overnight in a 5% CO2 atmosphere at 37° C. On the day of the assay, cells were washed once with 100 μl of phosphate-buffered saline (PBS). A Biomek 2000 was used to serially dilute all peptides prior to beginning the assay. Serial dilutions were carried out in 100% DMSO.
(§2) 50 μl of each cAMP standard was added by hand and 70 μl of mix reagent (Amersham cAMP SPA kit) was added using the multidrop. […] This standard curve was used to convert CPM to pmol of cAMP.
(§3) Cell plates and peptide plates were loaded onto the Platemate. The media was aspirated from the wells and discarded. 100 uL per well of the peptide/buffer mixture were then added from the peptide plates to initiate the assay. After 30 min. of incubation the peptide/buffer was removed and 50 uL of the lysis reagent 1 solution was added per well. The plate was kept for one hour at RT or overnight if refrigerated and sealed.
(§4) Dose dependence for Compounds was determined at half-log concentrations in duplicate. […] A standard curve was determined using known amounts of cyclic AMP. […] The data were analyzed by nonlinear regression curve fitting (4 parameter sigmoidal dose-response curve) to determine the EC50 of the compounds.

[2] = molecular target: T1, Mouse GLP-1 Receptor; test: Stimulation of cAMP synthesis in CHO cells expressing mouse GLP-1 receptor; format: cell-based; settings: for Emax: CHO, percent of maximal GLP-1 stimulated activity
Protocol: as §1, §2, §3, §4

[3] = molecular target: T2, Mouse GLP-1 Receptor; test: cell-based or functional assay
[4] = molecular target: Full-length human glucagon-like peptide 1 receptor (human, UniProt P43220 24-463); test: cell-based or functional assay

Molecule	Emax [1] [%]	Mean Hill [1]	Mean Hill [2]	Emax [2] [%]	EC50 [1] [nM]	Mean EC50 (nM), stimulation of cAMP synthesis in CHO cells [3] [nM]	Mean Emax (%), stimulation of cAMP synthesis in CHO cells [3] [%]	Mean EC50 (nM), stimulation of cAMP synthesis in CHO cells [4] [nM]	Mean Emax (%), stimulation of cAMP synthesis in CHO cells [4] [%]
CCc1cc(O)ccc1-c1ccc(C[C@H](NC(=O)[C@H](CC(=O)O)NC(=O)[C@H](CO)NC(=O)[C@@H](NC(=O)[C@](C)(Cc2ccccc2F)NC(=O)[C@@H](NC(=O)CNC(=O)[C@H](CCC(=O)O)NC(=O)[C@]2(C)CCCN2C(=O)C(Cc2c[nH]cn2)OC)[C@@H](C)O)[C@@H](C)O)C(=O)N[C@@H](Cc2ccc(-c3ccccc3C)nc2)C(N)=O)cc1 (single isomer, unassigned) [SEQ ID NO: 173]	95.6	2.6	1.4	99.7					
CCc1cc(O)c(I)cc1-c1ccc(C[C@H](NC(=O)[C@H](CC(=O)O)NC(=O)[C@H](CO)NC(=O)[C@@H](NC(=O)C(C)(Cc2ccccc2F)NC(=O)[C@@H](NC(=O)CNC(=O)[C@H](CCC(=O)O)NC(=O)C2(C)CCCN2C(=O)[C@H](Cc2c[nH]cn2)NC(=O)OC)[C@@H](C)O)[C@@H](C)O)C(=O)N[C@@H](Cc2ccc(-c3ccccc3C)nc2)C(N)=O)cc1 (some centres unmarked) [SEQ ID NO: 164]	97.2	1.5	2.7	103	0.01				
CCc1cc(O)ccc1-c1ccc(C[C@H](NC(=O)[C@H](CC(=O)O)NC(=O)[C@H](CO)NC(=O)[C@@H](NC(=O)[C@](C)(Cc2ccccc2F)NC(=O)[C@@H](NC(=O)CNC(=O)[C@H](CCC(=O)O)NC(=O)[C@]2(C)CCCN2C(=O)C(Cc2c[nH]cn2)OC)[C@@H](C)O)[C@@H](C)O)C(=O)N[C@@H](Cc2ccc(-c3ccccc3C)nc2)C(N)=O)cc1 (single isomer, unassigned) [SEQ ID NO: 174]		2.7	2.1						
CCc1cc(O)ccc1-c1ccc(C[C@H](NC(=O)[C@H](CC(=O)O)NC(=O)[C@H](Cc2c[nH]cn2)NC(=O)[C@@H](NC(=O)[C@](C)(Cc2ccccc2F)NC(=O)[C@@H](NC(=O)CNC(=O)[C@H](CCC(=O)O)NC(=O)[C@]2(C)CCCN2C(=O)C(Cc2c[nH]cn2)OC)[C@@H](C)O)[C@@H](C)O)C(=O)N[C@@H](Cc2ccc(-c3ccccc3C)nc2)C(N)=O)cc1 (single isomer, unassigned) [SEQ ID NO: 175]	105	2.8	2.7	100					
CCc1cc(O)ccc1-c1ccc(C[C@H](NC(=O)[C@H](CC(=O)O)NC(=O)[C@H](Cc2c[nH]cn2)NC(=O)[C@@H](NC(=O)[C@](C)(Cc2ccccc2F)NC(=O)[C@@H](NC(=O)CNC(=O)[C@H](CCC(=O)O)NC(=O)[C@]2(C)CCCN2C(=O)C(Cc2c[nH]cn2)OC)[C@@H](C)O)[C@@H](C)O)C(=O)N[C@@H](Cc2ccc(-c3ccccc3C)nc2)C(N)=O)cc1 (single isomer, unassigned) [SEQ ID NO: 176]		3.1	1.9						
B1						0.114	99.7	0.018	95.6
B2						0.055	103	0.01	97.2
B3						0.191	101	0.018	101
B4						0.126	105	0.03	95.8
B5						0.273	105	0.024	104
B6						0.084	100	0.03	105
